{
  "source": "patent US20210079056A1",
  "about": "(Bayer, published 2021)",
  "binders": {"B1": {"name": "TPP-10355 (antibody, human IgG1, lambda)", "heavy": "not shown", "light": "QSVLTQPPSVSGAPGQRVTISCTGSSSNIGAGYDVHWYQQLPGTAPKLLIYGNSNRPSGVPDRFSGSKSGTSASLAITGLQAEDEADYYCAAWNPNPNPNPNPNGGSGGSLRRSSCFGGRMDRIGAQSGLGCNSFRYGSNPNPNPNPNPNVFGSGTKVTVLGQPKAAPSVTLFPPSSEELQANKATLVCLISDFYPGAVTVAWKADSSPVKAGVETTTPSKQSNNKYAASSYLSLTPEQWKSHRSYSCQVTHEGSTVEKTVAPTECS"}, "B2": {"name": "TPP-13061 (antibody, human IgG1, lambda)", "heavy": "not shown", "light": "QSVLTQPPSVSGAPGQRVTISCTGSSSNIGAGYDVHWYQQLPGTAPKLLIYGNSNRPSGVPDRFSGSKSGTSASLAITGLQAEDEADYYCQSYDSSLSGVVFGGGTKLTVLGQPKAAPSVTLFPPSSEELQANKATLVCLISDFYPGAVTVAWKADSSPVKAGVETTTPSKQSNNKYAASSYLSLTPEQWKSHRSYSCQVTHEGSTVEKTVAPTECS"}, "B3": {"name": "TPP-10765 (antibody, human IgG1, lambda)", "heavy": "not shown", "light": "QSVLTQPPSVSGAPGQRVTISCTGSSSNIGAGYDVHWYQQLPGTAPKLLIYGNSNRPSGVPDRFSGSKSGTSASLAITGLQAEDEADYYCQSYDSSLSGVVFGGGTKLTVLGQPKAAPSVTLFPPSSEELQANKATLVCLISDFYPGAVTVAWKADSSPVKAGVETTTPSKQSNNKYAASSYLSLTPEQWKSHRSYSCQVTHEGSTVEKTVAPTECS"}, "B4": {"name": "TPP-10847 (antibody, human IgG1, lambda)", "heavy": "not shown", "light": "QSVLTQPPSVSGAPGQRVTISCTGSSSNIGAGYDVHWYQQLPGTAPKLLIYGNSNRPSGVPDRFSGSKSGTSASLAITGLQAEDEADYYCQSYDSSLSGVVFGGGTKLTVLGQPKAAPSVTLFPPSSEELQANKATLVCLISDFYPGAVTVAWKADSSPVKAGVETTTPSKQSNNKYAASSYLSLTPEQWKSHRSYSCQVTHEGSTVEKTVAPTECS"}, "B5": {"name": "TPP-10282 (antibody, human IgG1, lambda)", "heavy": "not shown", "light": "QSVLTQPPSVSGAPGQRVTISCTGSSSNIGAGYDVHWYQQLPGTAPKLLIYGNSNRPSGVPDRFSGSKSGTSASLAITGLQAEDEADYYCQSYDSSLSGVVFGGGTKLTVLGQPKAAPSVTLFPPSSEELQANKATLVCLISDFYPGAVTVAWKADSSPVKAGVETTTPSKQSNNKYAASSYLSLTPEQWKSHRSYSCQVTHEGSTVEKTVAPTECS"}, "B6": {"name": "TPP-13230 (antibody)", "heavy": "not shown", "light": "QSVLTQPPSVSGAPGQRVTISCTGSSSNIGAGYDVHWYQQLPGTAPKLLIYGNSNRPSGVPDRFSGSKSGTSASLAITGLQAEDEADYYCQSYDSSLSGVVFGGGTKLTVLGQPKAAPSVTLFPPSSEELQANKATLVCLISDFYPGAVTVAWKADSSPVKAGVETTTPSKQSNNKYAASSYLSLTPEQWKSHRSYSCQVTHEGSTVEKTVAPTECS"}, "B7": {"name": "TPP-10845 (antibody, human IgG1, lambda)", "heavy": "not shown", "light": "QSVLTQPPSVSGAPGQRVTISCTGSSSNIGAGYDVHWYQQLPGTAPKLLIYGNSNRPSGVPDRFSGSKSGTSASLAITGLQAEDEADYYCQSYDSSLSGVVFGGGTKLTVLGQPKAAPSVTLFPPSSEELQANKATLVCLISDFYPGAVTVAWKADSSPVKAGVETTTPSKQSNNKYAASSYLSLTPEQWKSHRSYSCQVTHEGSTVEKTVAPTECS"}, "B8": {"name": "TPP-10274 (antibody)", "heavy": "not shown", "light": "QSVLTQPPSVSGAPGQRVTISCTGSSSNIGAGYDVHWYQQLPGTAPKLLIYGNSNRPSGVPDRFSGSKSGTSASLAITGLQAEDEADYYCQSYDSSLSGVVFGGGTKLTVLGQPKAAPSVTLFPPSSEELQANKATLVCLISDFYPGAVTVAWKADSSPVKAGVETTTPSKQSNNKYAASSYLSLTPEQWKSHRSYSCQVTHEGSTVEKTVAPTECS"}, "B9": {"name": "TPP-10290 (antibody)", "heavy": "not shown", "light": "QSVLTQPPSVSGAPGQRVTISCTGSSSNIGAGYDVHWYQQLPGTAPKLLIYGNSNRPSGVPDRFSGSKSGTSASLAITGLQAEDEADYYCQSYDSSLSGVVFGGGTKLTVLGQPKAAPSVTLFPPSSEELQANKATLVCLISDFYPGAVTVAWKADSSPVKAGVETTTPSKQSNNKYAASSYLSLTPEQWKSHRSYSCQVTHEGSTVEKTVAPTECS"}, "B10": {"name": "TPP-10283 (antibody, human IgG1, lambda)", "heavy": "not shown", "light": "QSVLTQPPSVSGAPGQRVTISCTGSSSNIGAGYDVHWYQQLPGTAPKLLIYGNSNRPSGVPDRFSGSKSGTSASLAITGLQAEDEADYYCQSYDSSLSGVVFGGGTKLTVLGQPKAAPSVTLFPPSSEELQANKATLVCLISDFYPGAVTVAWKADSSPVKAGVETTTPSKQSNNKYAASSYLSLTPEQWKSHRSYSCQVTHEGSTVEKTVAPTECS"}, "B11": {"name": "TPP-13054 (antibody, human IgG1, lambda)", "heavy": "not shown", "light": "QSVLTQPPSVSGAPGQRVTISCTGSSSNIGAGYDVHWYQQLPGTAPKLLIYGNSNRPSGVPDRFSGSKSGTSASLAITGLQAEDEADYYCQSYDSSLSGVVFGGGTKLTVLGQPKAAPSVTLFPPSSEELQANKATLVCLISDFYPGAVTVAWKADSSPVKAGVETTTPSKQSNNKYAASSYLSLTPEQWKSHRSYSCQVTHEGSTVEKTVAPTECS"}, "B12": {"name": "TPP-10294 (antibody, human IgG1, lambda)", "heavy": "not shown", "light": "QSVLTQPPSVSGAPGQRVTISCTGSSSNIGAGYDVHWYQQLPGTAPKLLIYGNSNRPSGVPDRFSGSKSGTSASLAITGLQAEDEADYYCQSYDSSLSGVVFGGGTKLTVLGQPKAAPSVTLFPPSSEELQANKATLVCLISDFYPGAVTVAWKADSSPVKAGVETTTPSKQSNNKYAASSYLSLTPEQWKSHRSYSCQVTHEGSTVEKTVAPTECS"}, "B13": {"name": "TPP-10361 (antibody, human IgG1, lambda)", "heavy": "not shown", "light": "QSVLTQPPSVSGAPGQRVTISCTGSSSNIGAGYDVHWYQQLPGTAPKLLIYGSGSGSGSGSGSPDGGSGGSLRRSSCFGGRMDRIGAQSGLGCNSFRYGSYGSGGSGSGSGNRPSGVPDRFSGSKSGTSASLAITGLQAEDEADYYCQSYDSSLSGVVFGGGTKLTVLGQPKAAPSVTLFPPSSEELQANKATLVCLISDFYPGAVTVAWKADSSPVKAGVETTTPSKQSNNKYAASSYLSLTPEQWKSHRSYSCQVTHEGSTVEKTVAPTECS"}},
  "note": "Several values for one entry are separate records, joined by “and”; a condition that tells them apart may be missing. Identical values can stand only once.",
  "data": [
    {"biological_target": "T1, human NPRA (human, UniProt P16066 33-1061)", "T1 sequence (looked up)": "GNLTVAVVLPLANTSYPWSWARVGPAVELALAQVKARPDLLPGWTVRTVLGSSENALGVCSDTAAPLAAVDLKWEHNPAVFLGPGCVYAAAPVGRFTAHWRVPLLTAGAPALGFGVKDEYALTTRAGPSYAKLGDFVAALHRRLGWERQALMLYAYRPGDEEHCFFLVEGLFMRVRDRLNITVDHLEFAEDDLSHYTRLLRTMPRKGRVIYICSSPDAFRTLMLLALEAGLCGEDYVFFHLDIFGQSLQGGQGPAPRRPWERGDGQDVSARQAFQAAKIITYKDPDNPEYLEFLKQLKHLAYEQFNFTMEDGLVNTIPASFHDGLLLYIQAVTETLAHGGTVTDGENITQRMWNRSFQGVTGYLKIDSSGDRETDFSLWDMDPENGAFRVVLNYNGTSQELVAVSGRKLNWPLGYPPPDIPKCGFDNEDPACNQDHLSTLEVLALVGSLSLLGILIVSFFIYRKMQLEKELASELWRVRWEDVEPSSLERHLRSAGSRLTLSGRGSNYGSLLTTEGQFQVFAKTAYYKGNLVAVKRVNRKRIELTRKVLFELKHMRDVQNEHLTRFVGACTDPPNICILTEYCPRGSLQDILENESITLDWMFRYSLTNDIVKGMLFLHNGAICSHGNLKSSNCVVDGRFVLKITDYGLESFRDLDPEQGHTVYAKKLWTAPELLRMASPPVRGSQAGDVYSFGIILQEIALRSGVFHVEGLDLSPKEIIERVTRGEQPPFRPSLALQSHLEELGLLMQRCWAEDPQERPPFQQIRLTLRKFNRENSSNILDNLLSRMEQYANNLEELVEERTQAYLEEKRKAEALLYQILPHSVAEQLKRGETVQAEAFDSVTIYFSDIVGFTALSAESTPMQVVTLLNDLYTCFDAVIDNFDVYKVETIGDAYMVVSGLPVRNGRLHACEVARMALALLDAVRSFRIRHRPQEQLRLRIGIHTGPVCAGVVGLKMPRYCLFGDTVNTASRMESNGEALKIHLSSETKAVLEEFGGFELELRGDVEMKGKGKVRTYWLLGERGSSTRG", "test": "cell-based or functional assay", "values": [
      {"binder": "B1", "average rel logEC50": -0.2, "rel. logEC50 pcs 2": -0.6, "rel. logEC50 pcs 3": 0.2, "rel. logEC50 pcs 4": -0.3},
      {"binder": "B2", "average rel logEC50": -0.7, "rel. logEC50* pcs": "-0.6 and -0.8"},
      {"binder": "B3", "average rel logEC50": -0.4, "rel. logEC50 pcs 5": -0.9, "rel. logEC50 pcs 6": -0.4, "rel. logEC50 pcs 7": 0.2},
      {"binder": "B4", "average rel logEC50": -0.5, "rel. logEC50 pcs 5": 0, "rel. logEC50 pcs 6": -0.9},
      {"binder": "B5", "average rel logEC50": 0.1, "rel. logEC50 pcs 1": 0.3, "rel. logEC50 pcs 2": -0.2, "rel. logEC50 pcs 4": 0.1, "rel. logEC50 pcs 5": 0.2},
      {"binder": "B6", "rel. logEC50 pcs 9": -0.3},
      {"binder": "B7", "average rel logEC50": -0.6, "rel. logEC50 pcs 5": -0.4, "rel. logEC50 pcs 6": -0.8},
      {"binder": "B8", "average rel logEC50": -0.1, "rel. logEC50 pcs 2": -0.3, "rel. logEC50 pcs 3": -0.2, "rel. logEC50 pcs 7": 0},
      {"binder": "B9", "average rel logEC50": -0.5, "rel. logEC50 pcs 1": -0.8, "rel. logEC50 pcs 2": -0.1},
      {"binder": "B10", "rel. logEC50 pcs 5": -0.8},
      {"binder": "B11", "average rel logEC50": -0.8, "rel. logEC50* pcs": "-0.7 and -0.8"},
      {"binder": "B12", "average rel logEC50": -0.3, "rel. logEC50* pcs": "-0.5 and -0.6 and -0.4", "rel. logEC50 pcs 4": -0.2, "rel. logEC50 pcs 7": 0},
      {"binder": "B13", "rel. logEC50 pcs 5": -0.1}
    ]}
  ]
}
